# Experimental data taken from patent US11266716B2, “Use of dermcidin in sterile inflammatory conditions” (THE FEINSTEIN INSTITUTES FOR MEDICAL RESEARCH, priority 2015, dated 2022).
# How the values were obtained:
# various types of cells = conditions: cited from earlier work
# [1] = tested on: Murine macrophage-like RAW 264.7; assay: LPS- or CIRP-induced NO release by murine macrophages (Griess reaction); assay type: cell-based; conditions: 16 h
# Protocol: FIG. 2. Dermcidin dose-dependently attenuated LPS- and CIRP-induced NO release by murine macrophages. Murine macrophages were stimulated with LPS or CIRP alone or in the presence of recombinant dermcidin (DCD) for 16 hours, and extracellular levels of nitric oxide (NO) were determined by the Griess Reagent. *, P<0.05 versus “−control”; #, P<0.05 versus “+LPS”, or “+CIRP” alone.
# Cell culture: Murine macrophage-like RAW 264.7 were obtained from the American Type Culture Collection (ATCC, Rockville, Md.), and were cultured in DMEM supplemented with 1% penicillin/streptomycin and 10% FBS. Human blood was purchased from the Long Island Blood Bank (Melville, N.Y.), and human peripheral blood mononuclear cells (HuPBMCs) were isolated by density gradient centrifugation through Ficoll (Ficoll-Paque PLUS, Pharmacia, Piscataway, N.J.) as previously described (20-22). […] Subsequently, the cell-conditioned culture media were analyzed respectively for levels of nitric oxide, and other cytokines by the Griess Reaction and Cytokine Antibodies Arrays as previously described (19, 23).
# Nitric oxide (NO) assay: The levels of NO in the culture medium were determined indirectly by measuring the NO^2− production with a colorimetric assay based on the Griess reaction (21, 24). NO^2− concentrations were determined with reference to a standard curve generated with sodium nitrite at various dilutions.
# [2] = tested on: human peripheral blood mononuclear cells (HuPBMCs); assay: LPS- or HMGB1-induced cytokine/chemokine release by human monocytes (Cytokine Antibody Array); assay type: cell-based
# Protocol: FIG. 3A-3B. Dermcidin modulated LPS- and HMGB1-induced chemokine release by human monocytes. Human peripheral mononuclear cells (huPBMCs) were stimulated with LPS (0.8 μg/ml) or HMGB1 (4.0 μg/ml) alone, or in the presence of DCD (1.0 μg/ml) for 16 hours, and extracellular levels of cytokines and chemokines were determined by Cytokine Antibody Arrays (Panel A, B). A, Representative cytokine antibody arrays. The name of the cytokines and positive controls (“Pos”, or “+Ctrl”) were labeled in the table below. B, Relative cytokine levels. The relative cytokine levels were estimated by measuring the intensity of corresponding signal, and expressed as mean±SEM [% of positive controls (“+Ctrl”) of respective arrays] of two independent experiments. *, P<0.05 versus “untreated”; #, P<0.05 versus “+LPS” or “+HMGB1” alone.
# Cell culture: Murine macrophage-like RAW 264.7 were obtained from the American Type Culture Collection (ATCC, Rockville, Md.), and were cultured in DMEM supplemented with 1% penicillin/streptomycin and 10% FBS. Human blood was purchased from the Long Island Blood Bank (Melville, N.Y.), and human peripheral blood mononuclear cells (HuPBMCs) were isolated by density gradient centrifugation through Ficoll (Ficoll-Paque PLUS, Pharmacia, Piscataway, N.J.) as previously described (20-22). Adherent macrophages or HuPBMCs were gently washed with, and cultured in, DMEM before stimulation with LPS (0.4 μg/ml), CIRP (2.0 μg/ml), or HMGB1 (1.0 μg/ml) in the absence or presence of recombinant dermcidin for 16 h. Subsequently, the cell-conditioned culture media were analyzed respectively for levels of nitric oxide, and other cytokines by the Griess Reaction and Cytokine Antibodies Arrays as previously described (19, 23).
# Cytokine antibody array: Human Cytokine Antibody Array C3 (Cat. No. AAH-CYT-3-4, RayBiotech Inc., Norcross, Ga., USA), which respectively detect 42 cytokines on one membrane, were used to determine cytokine levels in human monocyte-conditioned culture medium as previously described (21, 24). Briefly, the membranes were sequentially incubated with equal volumes of cell culture medium (200 al), primary biotin-conjugated antibodies, and horseradish peroxidase-conjugated streptavidin. After exposing to X-ray film, the relative signal intensity was determined using the Scion Image software.
# Male C57BL/6 mice = assay: Hepatic ischemia/reperfusion (I/R) injury in mice; assay type: in vivo
# Protocol: FIG. 4A-4B. Intravenous administration of dermcidin conferred protection against hepatic ischemia/reperfusion (I/R) injury. Male C57BL/6 mice (20-25 g) were subjected to hepatic ischemia/reperfusion by temporal clamping the hepatic artery and portal vein for 60 minutes, which typically produced ischemia in 70% of the liver. At the beginning of the reperfusion, 0.2 ml saline or recombinant dermcidin solution (“DCD”, 5.0 mg/kg BW) was injected via the internal jugular vein. At 24 h after the onset of ischemia, animals were euthanized to harvest blood to measure serum levels of hepatic injury markers such as alanine aminotransferase (ALT) (4A) and aspartate aminotransferase (AST) (4B) using commercial kits.
# FIG. 5. DCD monomer protects against hepatic ischemic/reperfusion injury. Representative liver histology at 24 h post the onset of reperfusion. Note a normal liver parenchyma architecture in the “Sham” control, but hepatic necrosis in the “I/R”. […] Liver injury was also assessed histologically using the Suzuki liver injury scores, and expressed as means±S.E. of 3-6 animals per group. *P<0.05 vs. sham; #P<0.05 vs. “I/R” group.
# FIG. 6A-6B. DCD protects against hepatic ischemic/reperfusion-induced lung injury. 6A). Histopathological characteristics of lung injury after hepatic I/R. Representative H&E histological images of lung sections at 24 h post the onset of reperfusion. Note a normal lung architecture in the “Sham” control, and extensive lung injury and neutrophil infiltration in the “I/R” group. […] 6B). Histological Scores. Lung injury was assessed histologically using American Thoracic Society Documents' lung injury scores, and expressed as means±S.E. of 3-6 animals per group. *P<0.05 vs. sham; #P<0.05 vs. “I/R” group.
# In further experiments, intravenous administration of dermcidin conferred protection against hepatic ischemia/reperfusion (I/R) injury. Male C57BL/6 mice (20-25 g) were subjected to hepatic ischemia/reperfusion by temporal clamping the hepatic artery and portal vein for 60 minutes, which typically produced ischemia in 70% of the liver. […]
# A representative liver histology at 24 h post the onset of reperfusion is shown, note a normal liver parenchyma architecture in the “Sham” control, and hepatic necrosis in the “I/R”. […] Liver injury was also assessed histologically using the Suzuki liver injury scores, and expressed as means±S.E. of 3-6 animals per group. *P<0.05 vs. sham; #P<0.05 vs. “I/R” group.
# DCD also protects against hepatic ischemic/reperfusion-induced lung injury. […] Lung injury was assessed histologically using American Thoracic Society Documents' lung injury scores, and expressed as means±S.E. of 3-6 animals per group. *P<0.05 vs. sham; #P<0.05 vs. “I/R” group.
# [3] = human monocyte cultures, HMGB1, DCD 1.0 μg/ml, 16 h
# [4] = human monocyte cultures, LPS, DCD 1.0 μg/ml, 16 h
# [5] = 5.0 mg/kg BW via internal jugular vein at beginning of reperfusion, 24 h after onset of ischemia
# [6] = 24 h post the onset of reperfusion
molecule,measurement,setting,value
"N-terminal peptide (residue 20-62): N-terminal proteolytic peptide of dermcidin, residue 20-62 (YDPEAASAPGSGNPCHEASAAQKENAGEDPGLARQAPKPRKQR; UniProt P81605 20-62, looked up, fragment)",protection of cells against oxidative or hypoxic stresses,various types of cells,protect various types of cells against oxidative or hypoxic stresses
"dermcidin: Recombinant human dermcidin, mature form residues 20-110 without signal peptide, N-terminal histidine tag, expressed in E. coli (protein, listed as Homo sapiens) YDPEAASAPGSGNPCHEASAAQKENAGEDPGLARQAPKPRKQRSSLLEKGLDGAKKAVGGLGKLGKDAVEDLESVGKGAVHDVKDVLDSVL",CIRP-induced NO release,[1]; macrophages stimulated with CIRP,dose-dependently and significantly attenuated
same,LPS-induced NO release,[1]; macrophages stimulated with LPS,dose-dependently and significantly attenuated
same,immune modulating properties on dimer formation,"[2]; dimers formed in the absence of reducing agents, in vitro, data not shown",remained unaltered
same,TNF secretion,[2]; human monocyte cultures,slightly stimulated
same,HMGB1-induced release of GRO-α,[2]; [3],effectively inhibited
same,HMGB1-induced release of MCP-3,[2]; [3],effectively inhibited
same,LPS-induced release of GRO-α,[2]; [4],effectively inhibited
same,LPS-induced release of MCP-3,[2]; [4],effectively inhibited
same,"serum alanine aminotransferase (ALT), hepatic injury marker",Male C57BL/6 mice; [5],significant protection
same,"serum aspartate aminotransferase (AST), hepatic injury marker",Male C57BL/6 mice; [5],significant protection
same,lung histology (H&E) after hepatic I/R,Male C57BL/6 mice; [6],well-preserved tissue structure
"DCD monomer: Recombinant dermcidin 12-14 kDa monomer, seen in the presence of reducing agent DTT (protein, UniProt P81605 20-110, looked up) Dermcidin: YDPEAASAPGSGNPCHEASAAQKENAGEDPGLARQAPKPRKQRSSLLEKGLDGAKKAVGGLGKLGKDAVEDLESVGKGAVHDVKDVLDSVL",liver histology after hepatic I/R,Male C57BL/6 mice; [6],well-preserved tissue structure
